Results taken from the supplement of paper PMC9170038.

Experiments:
[1] = test system: K4 kissing-loop RNA reporter; test: apparent KD of K4 kissing-loop reporter; higher = weaker reporter binding; settings: Eterna round: R107;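 further: bound reporter read as fluorescence of individual clusters on recovered sequencing chips by microscopy, with normalized cluster intensities fitted with a binding model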
Description: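 RNA-MaP round R107: designed RNA switches with theophylline, tryptophan, arginine or FMN aptamers are transcribed on-chip within common flanks. They are titrated with a labelled K4 kissing-loop RNA reporter in RNA-MaP buffer (100 mM Tris pH 7.5, 80 mM KCl, 4 mM MgCl2), without ligand or with the indicated ligand. Median apparent KD per design.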

MS2 coat protein = test: apparent KD of MS2 coat protein; designed switch direction (-1 OFF switch, 1 ON switch): -1; higher = weaker reporter binding
Method in brief: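 Stalled E. coli RNA polymerase transcribed designed RNA switches on Illumina chips, which were then titrated with SNAP-549-labelled MS2 coat protein, doubling from 0.7 or 1.5 nM to 3 µM. Steps lasted from 0.8–1.5 h at the lowest concentration to 10–20 min at the highest. The apparent KD is each design's median over clusters of curve-fitted normalised fluorescence.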

[2] = input ligand: theophylline 20 uM
[3] = input ligand: tryptophan 2.4 mM
[4] = input ligand: microRNA oligo, concentration not stated
[5] = Eterna round: R95, input ligand: FMN 200 uM
[6] = Eterna round: R95, input ligand: microRNA oligo, concentration not stated
[7] = Eterna round: R95, input ligand: none

Sequence | apparent KD of K4 kissing-loop reporter ([1]; input ligand: FMN 200 uM) [nM] | apparent KD of K4 kissing-loop reporter ([1]; input ligand: arginine 13.2 mM) [nM] | apparent KD of K4 kissing-loop reporter ([1]; input ligand: none) [nM] | apparent KD of K4 kissing-loop reporter [1, 2] [nM] | apparent KD of K4 kissing-loop reporter [1, 3] [nM] | apparent KD of MS2 coat protein (MS2 coat protein; input ligand: FMN 200 uM) [nM] | apparent KD of MS2 coat protein (MS2 coat protein; [4]) [nM] | apparent KD of MS2 coat protein (MS2 coat protein; input ligand: none) [nM] | further results
AAAACGCUGUGAAUAACACAGCGAAAUUCGCGAGGACCGGUACGGCCGCCACUCGCUAACUGCGAGUGAUGUUCGAUAAUAAAAU [Mat - Mod of OpenEnded 3 - D3] | 166 | 90.3 | 170 | 161 | 104 | – | – | – | –
AAAACUCAUGGCUUAUAUCCGUGUCUCGAAGGAGCGUACAGCGGUACAGGUAGGUCGCGAGACAUGAGUGAUGUUCAUGUGUAAA [KL-XArg-A6 #analogue] | 109 | 109 | 129 | 169 | 104 | – | – | – | –
AAAACUCCGGGUAGUGAUGUUACCUAGGAUACCAGUAUCGCAACAUACCCUUGGCAGCCUCUUCCUGCUGGCGUCGCUUGGCCUA [theeternabot_exclusion_KL_Theo_A_42] | 95.2 | 80.5 | 90.8 | 91.9 | 75.1 | – | – | – | –
AAAAUAAACCAGUGAUGUUGGUAGCCAGAUACCAGCGACGAAAGUCGCCCUUGGCAGCUGUGGACGUACAAAAUAAGUACGUCCU | 248 | 232 | 268 | 238 | 230 | – | – | – | –
AAAAUAAACCAGUGAUGUUGGUGUCCAGAUACCAGCGAUAAUAAUCGCCCUUGGCAGCUGCGGACGUACAAAAUAAGUACGUCCU [MatMod 11 - Jieux - Same State - Theophylline A] | 482 | 351 | 513 | 294 | 408 | – | – | – | –
AAAAUAAACCAGUGAUGUUGGUGUCCAGAUACCAGCGAUAAUCAUCGCCCUUGGCAGCUGCGGACGUACAAAAUAAGUACGUCCU [MatMod 12 - Jieux - Same State - Theophylline A] | 665 | 475 | 707 | 399 | 567 | – | – | – | –
AAAAUAAACCAGUGAUGUUGGUGUCUGGAUACCAGCGACGAAAGUCGCCCUUGGCAGCUACGGACGUACAAAAUAAGUACGUCCU [MatMod 8 - Jieux - Same State - Theophylline A] | 709 | 487 | 655 | 680 | 561 | – | – | – | –
AAAAUAAAGCAGUCAAUCGGAGUGAUGUUCCGAGGACCGGUACGGCCGCCACUCGAGAGUCCAAAGGACUCAUGGCGAGACUGCA [#SwitchBubble 17 #K4Early] | 97 | 94.8 | 93.2 | 92.6 | 90.1 | – | – | – | –
AAAAUAAAUCAGUGAUGUUGGUGUCCAGAUACCAGCGACGAAAGUCGCCCUUGGCAGCUGUGGACGUACAAAAUAAGUACGUCCU [MatMod 22 - Jieux - Same State - Theophylline A] | 610 | 316 | 611 | 335 | 465 | – | – | – | –
AAAAUAAGCCAGUGAUGUUGGUACCCAGAUACCAGCGACGAAAGUCGCCCUUGGCAGCUGUGGACGUACAAAAUAAGUACGUCCU | 434 | 209 | 315 | 617 | 303 | – | – | – | –
AAAAUAAGCCAGUGAUGUUGGUAGCCAGAUACCAGCGACGAAAGUCGCCCUUGGCAGCUGUGGACGUACAAAAUAAGUACGUCCU | 1010 | 751 | 928 | 711 | 723 | – | – | – | –
AAAAUAAUCCAGUGAUGUUGGUAUCCAGAUACCAGCCACGAAAGUGGCCCUUGGCAGCUGUAGGACGUACAAAUAAGUACGUCCA [#OpenEnded 7 #StaticStem #K4Early] | 361 | 175 | 345 | 486 | 444 | – | – | – | –
AAAAUAAUCCAGUGAUGUUGGUAUCCAGAUACCAGCCAGGAAACUGGCCCUUGGCAGCUGUGGACGUACAAAAUAAGUACGUCCU [#OpenEnded 10 #StaticStem #K4Early] | 481 | 268 | 464 | 611 | 355 | – | – | – | –
AAAAUAAUCCAGUGAUGUUGGUAUGCAGAUACCAGCGACGAAAGUCGCCCUUGGCAGCUGUGGACGUACAAAAUAAGUACGUCCU | 923 | 491 | 933 | 979 | 855 | – | – | – | –
AAAAUAAUCCAGUGAUGUUGGUUUCCAGAUACCAGCGACGAAAGUCGCCCUUGGCAGCUGUGGACGUACAAAAUAAGUACGUCCU | 318 | 362 | 359 | 276 | 300 | – | – | – | –
AAAAUUGCGGUUUUAAGAUCUUUUUGCUUACGAGGACCGGUACGGCCGCCACUCGAGUCAAGUGAUGUUUGAUUUUCUAUUAUUA [JR_ExcTryptoA_Sub015] | 92.4 | 179 | 136 | 189 | 71.6 | – | – | – | –
UUUUUAGAUGAAGGAUAUACUUAACAUGAGGAUCACCCAUGUGGUGUUGUGAGUGAGUGAGUUUAGUAGAAGGUCAAGUAUUUU [JMF's solution 45] (Eterna round: R96, puzzle: Exclusion NG 2) | – | – | – | – | – | 769 | 377 | 404 | –

Sequence | apparent KD of K4 kissing-loop reporter ([1]; input ligand: FMN 200 uM) [nM] | apparent KD of K4 kissing-loop reporter ([1]; input ligand: arginine 13.2 mM) [nM] | apparent KD of K4 kissing-loop reporter ([1]; input ligand: none) [nM] | apparent KD of K4 kissing-loop reporter [1, 2] [nM] | apparent KD of K4 kissing-loop reporter [1, 3] [nM] | apparent KD of MS2 coat protein (MS2 coat protein; input ligand: FMN 200 uM) [nM] | apparent KD of MS2 coat protein (MS2 coat protein; [4]) [nM] | apparent KD of MS2 coat protein (MS2 coat protein; input ligand: none) [nM] | further results
UUUUUAUAUGAAGGAUAUACUUAACAUGAGGAUCACCCAUGUGGUGUUGUGAGUGAGUGAGUUUAGUAGAAGGUCAAGUCUUUU [JMF's solution 36] (Eterna round: R96, puzzle: Exclusion NG 2) | – | – | – | – | – | 555 | 383 | 361 | –
UUUUUAUAUGAAGGAUAUACUUAACAUGAGGAUCACCCAUGUGGUGUUGUGAGUGAGUGAGUUUAGUAGAAGGUCAAUAAUUUU [JMF's solution 9] (Eterna round: R96, puzzle: Exclusion NG 2) | – | – | – | – | – | 996 | 180 | 286 | –
UUUUUAUAUGAAGGAUAUACUUAACAUGAGGAUCACCCAUGUGGUGUUGUGAGUGAGUGAGUUUAGUAGAAGGUCAAUGAUUAU [JMF's solution 59] (Eterna round: R96, puzzle: Exclusion NG 2) | – | – | – | – | – | 991 | 205 | 321 | –
UUUUUAUAUGAAGGAUAUACUUAACAUGAGGAUCACCCAUGUGGUGUUGUGAGUGAGUGAGUUUAGUAGAAGGUCAAUGAUUCU [JMF's solution 61] (Eterna round: R96, puzzle: Exclusion NG 2) | – | – | – | – | – | 864 | 299 | 419 | –
UUUUUAUAUGAAGGAUAUACUUAACAUGAGGAUCACCCAUGUGGUGUUGUGAGUGAGUGAGUUUAGUAGAAGGUCAAUUCUCUU [JMF's solution 81] (Eterna round: R96, puzzle: Exclusion NG 2) | – | – | – | – | – | 989 | 156 | 492 | –
UUUUUAUAUGAAGGAUAUACUUAACAUGAGGAUCACCCAUGUGGUGUUGUGAGUGAGUGAGUUUAGUAGAAGGUCAAUUCUUUA [JMF's solution 83] (Eterna round: R96, puzzle: Exclusion NG 2) | – | – | – | – | – | 866 | 443 | 463 | –
UUUUUAUCUGAAGGAUAUACUUAACAUGAGGAUCACCCAUGUGGUGUUGUGAGUGAGUGAGUUUAGUAGAAGGUCAAUUAUUUU [JMF's solution 19] (Eterna round: R96, puzzle: Exclusion NG 2) | – | – | – | – | – | 1310 | 392 | 380 | –
UUUUUAUUUGAAGGAUAUACUUAACAUGAGGAUCACCCAUGUGGUGUUGUGAGUGAGUGAGUUUAGUAGAAGGUCAAUUCUUUU [JMF's solution 85] (Eterna round: R96, puzzle: Exclusion NG 2) | – | – | – | – | – | – | 391 | – | –
UUUUUCAGGCCAGAUCCUCACAUGAGGAUCACCCAUGUGCUCGUCUGUUUUCGCGCUAGCUUUUUUUUGGUAGGGCU [Level Boss var2-17] (puzzle: Sensor v3, turn-off variant 1) | – | – | – | – | – | – | – | – | apparent KD of MS2 coat protein (MS2 coat protein; [5]): 329 nM; apparent KD of MS2 coat protein (MS2 coat protein; [6]): 29.7 nM; apparent KD of MS2 coat protein (MS2 coat protein; [7]): 325 nM
UUUUUCAGGCCAGAUCCUCACAUGAGGAUCACCCAUGUGCUCGUCUGUUUUCGCUCUUUCUUUUUUUUGUUUGUGCU [Level Boss var2-19] (puzzle: Sensor v3, turn-off variant 1) | – | – | – | – | – | – | – | – | apparent KD of MS2 coat protein (MS2 coat protein; [5]): 181 nM; apparent KD of MS2 coat protein (MS2 coat protein; [6]): 27.5 nM; apparent KD of MS2 coat protein (MS2 coat protein; [7]): 312 nM
UUUUUCUCAGGAUAUACAUGAGGAUCACCCAUGUAUAUUAAUGGUAAUACAUGGGAAUGUAGAAGGGAGCUCAU [Omei Ex3 Pseudoloop 15] (Eterna round: R97, puzzle: Exclusion 3) | – | – | – | – | – | 112 | – | 122 | –
UUUUUGUCAGGAUAUGAUUAGAUCUACUUUUGUAGAUCUAAUCAGAAGGGACAUGAGGAUCACCCAUGUAGUUU [Ex4 - 3 - 11] (puzzle: Exclusion 4) | – | – | – | – | – | – | – | – | apparent KD of MS2 coat protein (MS2 coat protein; [6]): 35.7 nM
UUUUUGUGAGGAUAUCAGUAGUAAAUAAAUAAAAUAACUACUGAGAAGGCACAUGAGGAUCACCCAUGUUCUUU [Mat - Exclusion 4 - Mod of Salish - D67] (puzzle: Exclusion 4) | – | – | – | – | – | – | – | – | apparent KD of MS2 coat protein (MS2 coat protein; [6]): 17.1 nM
UUUUUUGUUGUGAGGAUAUCGUAGUUAUUUUGUUACGAGAAGGCACAUGAGGAUCACCCAUGUUUUUUGAUGUU [JR_BMOE4_Sub064] (puzzle: Brourd's mod of Exclusion 4) | – | – | – | – | – | – | – | – | apparent KD of MS2 coat protein (MS2 coat protein; [6]): 25.4 nM
UUUUUUUAUGAAGGAUAUACUUAACAUGAGGAUCACCCAUGUGGUGUUGUGAGUGAGUGAGUUUAGUAGAAGGUCAAUUAUUUU [JMF's solution 23] (Eterna round: R96, puzzle: Exclusion NG 2) | – | – | – | – | – | 412 | 379 | 334 | –
UUUUUUUGAGUAAGGAUAUGAUGCAGGAAACUGCGUCAGAAGGUACAUGAGGAUCACCCAUGUUAAUUUUGUUU [Explosion 14 - Jieux - Brourd's mod of Exclusion 4] (Eterna round: R97, puzzle: Brourd's mod of Exclusion 4) | – | – | – | – | – | 18.4 | – | 20.3 | –
UUUUUUUUGCGAGGAUAUGCAUUUAGUUAGUUAGCAGAAGGCGCGUUUCUAUACUCCUCUUCUUACAUGAGGAUCACCCAUGUU [JR_ExcNG1_Sub033] (Eterna round: R96, puzzle: Exclusion NG 1) | – | – | – | – | – | 69.9 | 34.5 | 35.1 | –
